Assay results from US20130089540A1 (BIOEX THERAPEUTICS, published 2013).
Residue numbers refer to the chain shown, from its start. One block for each binder: values may come before it.

Experiments:
[1] = target: T1, CD20 (UniProt P11836 1-297, limits assumed); test: FACS on CD20+ Ramos cells (FIG. 12 legend)
T1 construct: whole, on cells; also called CD20 on CD20+ Ramos cells; antigen
T1 sequence (looked up): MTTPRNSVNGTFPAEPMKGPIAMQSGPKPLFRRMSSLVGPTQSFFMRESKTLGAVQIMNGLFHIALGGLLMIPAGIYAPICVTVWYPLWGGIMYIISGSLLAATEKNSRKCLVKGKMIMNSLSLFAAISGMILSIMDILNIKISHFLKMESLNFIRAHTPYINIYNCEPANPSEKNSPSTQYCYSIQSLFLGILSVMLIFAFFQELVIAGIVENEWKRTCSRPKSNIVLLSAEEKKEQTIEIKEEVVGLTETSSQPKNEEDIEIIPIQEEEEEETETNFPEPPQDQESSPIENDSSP
Experimental: (§1) The specific binding to CD20 was detected by using CD20+ Ramos cell (ATCC) and T lymphocyte leukemia Jurkat cell (ATCC). Cells were incubated with various concentration of antibodies for 1 hour at 4° C. After washing with PBS for 3 times, 1:100 diluted FITC labeled anti-human Fc γ specific second antibody (The Jakson Laboratory) was added and incubated for 1 h at 4° C. After washing with PBS for three times, specific binding was analyzed by FACS instrument.

[2] = target: T1, CD20; test: FACS on CD20+ Ramos cells, FITC anti-human Fc gamma second antibody
Experimental: as §1

B1: humanized anti-CD20 antibody 1635 (antibody, human IgG1, V domains shown)
VH: QVQLVQSGAEVKKPGASVKVSCKASGYTFTSYNMHWVRQAPGKGLEWIGAIYPGNGDTSYNQKFKGRVTITADKSTSTAYMELSSLRSEDTAVYYCARSTYYGGDWYFNVWGQGTTVTVSS
VL: DVVMTQSPAFLSVTPGEKVTITCRASSSVSYIHWFQQKPGKAPKPLIYATSNLASGVPSRFSGSGSGTDFTLTINSLEAEDAATYYCQQWTSNPPTFGGGTKVEIK
binding result [1]: binds

B2: humanized anti-CD20 antibody 1535 (antibody, human IgG1, V domains shown)
VH: B1 VH with A40P, K74E
VL: B1 VL
binding result [2]: binds

B3: humanized anti-CD20 antibody 1534 (antibody, human IgG1, V domains shown)
VH: B1 VH with A40P, K74E
VL: B1 VL with P45S
binding result [2]: binds

Next, values leading:

binding result [2]: binds
B4: humanized anti-CD20 antibody 1634 (antibody, human IgG1, V domains shown)
VH: B1 VH
VL: B1 VL with P45S

binding result [1]: binds
B5: humanized anti-CD20 antibody 3637 (antibody, human IgG1, V domains shown)
VH: B1 VH with N33T, G56S, S59N, Y107N, N109E
VL: B1 VL with N93K
notes: CDR-optimized variant (hVH-2 / hVK-2)
